In the data set the target is VEGF165 (UniProt P15692-4 27-191). In words: EMSA; annealed; HEPES/Na+; 1:1.3; almost fully bound; 25 mM HEPES, 150 mM NaCl, pH 7.4; 30 pmol oligo + 40 pmol protein in 9 uL, 30 min at 4 C; 7% native PAGE in TAE 1X pH 7.8 at r.t. The conditions noted are these: protein: recombinant; chain copies: 2; G4; 2 copies of strand covalently linked 3'-3'.
Sequence of VEGF165 (P15692 other isoform, or with tags, fused parts or gaps): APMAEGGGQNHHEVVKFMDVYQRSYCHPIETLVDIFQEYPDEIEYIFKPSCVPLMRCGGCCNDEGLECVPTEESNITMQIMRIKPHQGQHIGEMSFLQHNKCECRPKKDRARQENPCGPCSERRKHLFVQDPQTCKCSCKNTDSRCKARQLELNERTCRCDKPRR

B1: bisV7t1TEG2D (structured_DNA)
DNA: TGTGGGGGTGGACGGGCCGGGTAGA
modifications: two V7t1 copies joined 3' to 3' by TEG/symmetric doubler linker (C25H53N2O24P5), inverted polarity
Consider B1, for which the binding result is listed as “binds”.
